Results: the supplement of paper PMC10567573

B1: SPDEF (parent)
chain: YPEDSSWAAKAPGASSREEPPEEP
B2: CDC25A (parent)
chain: QLIDPDENKENEAFEFKKPVRPVS

Variants of: B1
Assay: protein stability index of a GFP-peptide fusion (GPS, HEK-293T) (PSI 1-6); higher = more stable
Conditions: c terminus: a fixed tail appended
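Further: lentivirally expressed fusions sorted by FACS into six bins by GFP to DsRed ratio, PSI derived from sequencing read proportions per bin multiplied by bin number.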

Protein stability index, by site and new letter:
E19: F 3.06; D 3.37; N 4.32; T 4.49; W 3.53; K 3.91; M 4.07; V 4.48; Q 3.69; S 4.97; H 3.12
P20: Q 3.46; R 2.98; I 3.82; N 3.62; E 4.2; T 3.8; G 4.43; K 3.89; V 4.26; L 3.11
P24: E 3.48; Y 4.17; H 3.42; N 4.54; C 4.4; D 4.17; R 3.86
E22: D 3.4; F 3.43; H 4.06; A 4.38; C 3.49; K 3.88; L 3.92; Y 3.78; V 4.23; G 2.79; S 2.71; P 3.06; T 4.31
P21: R 4.25; Y 4.3; N 4.12; W 3.66; L 4.04; E 4.26; G 4.04; H 4.13; A 3.63; V 3.91; T 3.64; K 3.29; F 3.76
E23: Y 3.65; L 3.45; K 2.69; N 3.58; F 3.89; S 3.1; D 4.44; A 4.06; G 3.9; C 4.3; R 3.6

Variants of: B2
Assay: as above
Conditions: c terminus: a fixed tail appended

Protein stability index of substitutions, site by site:
P5: N 4.06; I 3.07; A 3.99; G 3.9; D 3.92; F 2.88; W 3.51; V 3.74; Y 2.85; H 3.61; Q 3.87; K 3.95; T 3.61; R 3.66; C 4.12; S 3.25; M 3.88
D6: L 3.23; I 4.22; K 3.87; Q 4.6; V 3.83; C 4.51; N 4.4; M 4.14; G 3.64; R 3.58; P 4.53; F 3.88; T 3.87; H 3.94; S 3.74; A 3.75; E 3.88
Q1: R 3.44; M 3.97; A 4.36; S 4.43; P 4.06; N 3.83; F 4.05; I 3.39; D 2.88; C 3.81; T 3.58; W 2.44; V 3.6; Y 2.32; E 4.56; H 4.72; L 2.93
I3: H 4.59; R 4.75; M 3.75; A 4.23; L 3.15; G 4.58; E 4.74; V 4.05; Q 3.95; T 4.12; K 3.86; P 4.3; Y 3.74; C 3.92; F 3.91; D 4.64; N 3.6
D4: W 3.45; N 3.2; M 3.94; G 3.56; K 3.87; V 3.44; Y 3.84; F 4.09; R 3.3; H 4.23; A 3.67; I 3.83; L 3.91; C 3.37; S 3.58; E 3.99; T 3.65
L2: A 4.69; Q 4.41; H 4.54; N 4.58; F 3.35; W 3.43; M 3.72; S 4.16; P 5.03; T 4.31; D 4.51; E 5.02; K 4.29; Y 4.17; V 3.29; C 4.64; I 2.73
